# Experimental data as given in IntAct's records for PubMed 24316736.
# B1: Ubiquitin-conjugating enzyme E2 R1 (Homo sapiens), P49427 (parent)
# chain: MARPLVPSSQKALLLELKGLQEEPVEGFRVTLVDEGDLYNWEVAIFGPPNTYYEGGYFKARLKFPIDYPYSPPAFRFLTKMWHPNIYETGDVCISILHPPVDDPQSGELPSERWNPTQNVRTILLSVISLLNEPNTFSPANVDASVMYRKWKESKGKDREYTDIIRKQVLGTKVDAERDGVKVPTTLAEYCVKTKAPAPDEGSDLFYDDYYEDGEVEEEADSCFGDDEDDSGTEES
# Variants of: B1
# Conditions: with rbx1_human RBX1, P62877
# Sequence of rbx1_human RBX1, P62877 (P62877 whole entry, looked up): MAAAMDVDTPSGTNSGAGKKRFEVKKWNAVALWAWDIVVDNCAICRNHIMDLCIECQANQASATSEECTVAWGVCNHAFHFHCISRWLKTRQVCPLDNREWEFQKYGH
row,Variant,effect of a mutation on the interaction
1,Y70R,disrupting interaction strength
2,T117E,disrupting interaction strength
